# From patent US20120276104A1 (F STAR BIOTECHNOLOGISCHE FORSCHUNGS UND ENTWICKLUNGSGES M B …, published 2012)
# B1: Fcab H561-4 (other)
# chain: TCPPCPAPELLGGPSVFLFPPKPKDTLMISRTPEVTCVVVDVSHEDPEVKFNWYVDGVEVHNAKTKPREEQYNSTYRVVSVLTVLHQDWLNGKEYKCKVSNKALPAPIEKTISKAKGQPREPQVYTLPPSRDEFFTYWVSLTCLVKGFYPSDIAVEWESNGQPENNYKTTPPVLDSDGSFFLYSKLTVDRRRWTAGNVFSCSVMHEALHNHYTQKSLSLSPGK
# notes: also called Her-2 specific Fcab clone H561-4
# How the values were obtained:
# [1] = target: T1, recombinant soluble HER-2 protein (human, UniProt P04626 23-652, limits assumed); assay: SPR (Biacore), soluble HER-2 coated on CM-5 chip, Fcab injected at 0.8-25 ug/ml, 1:1 model; SPR, recombinant soluble HER-2 on the chip
# T1 construct: Described only as 'recombinant soluble HER-2 protein'; also called recombinant HER-2
# Experimental: (§1) CM-5 chips are coated with increasing concentrations of recombinant soluble HER-2 protein. […] Then, buffer is injected to measure the off-rate of the binding reaction. The binding affinity (KD) is calculated using the BiaEval software using a 1:1 stochiometry model. […] Unbound Fcab is removed by two washing steps in FACS buffer. Cell bound Fcab is detected by incubation of the cells with polyclonal anti-human IgG antibodies coupled to phycoerythrin (SIGMA) for 30 minutes on ice as recommended by the manufacturer. Again, unbound detection antibodies are removed by two washing steps as above. Fcab binding is enumerated by flow cytometry by plotting the mean fluorescence intensity against the Fcab concentrations (FIG. 1, left panel).
# [2] = target: T2, HER-2 expressed on human tumor cells (human, UniProt P04626 23-1255); assay: flow cytometry on SKBR3 cells, detection with anti-human IgG-phycoerythrin, MFI against Fcab concentration; flow cytometry, HER-2 on SKBR3 cells
# T2 construct: whole, on cells; also called Her-2/neu; HER-2 on SKBR3, BT474 and HCC1954 cells
# Experimental: as §1
binder,measurement,setting,value
B1,Kd,[1],7.5 nM
same,EC50,[2],2 nM
